Results as given in paper PMC2965676, “The C-Terminal Domain of the MutL Homolog from Neisseria gonorrhoeae Forms an Inverted Homodimer” (PLoS ONE, 2010).

Molecular target: the molecule itself
Assay: SEC; Superose 6 HR 10/30; 10 mM Hepes pH 8.0, 300 mM KCl, 10% glycerol, 1 mM 2-mercaptoethanol; 0.4 ml/min; calibrated with molecular-mass markers

B1: C-terminal domain of the MutL homolog of Neisseria gonorrhoeae (NgoL-CTD), wild type (domain or fragment, UniProt Q5F8M6 458-658, looked up)
chain: IPSQSELPPLGFAIAQLLGIYILAQAEDSLLLIDMHAAAERVNYEKMKRQRQENGNLQSQHLLIPVTFAASHEECAALADHAETLAGFGLELSDMGGNTLAVRAAPVMLGKSDVVSLARDVLGELAQVGSSQTIASHENRILATMSCHGSIRAGRRLTLPEMNALLRDMENTPRSNQCNHGRPTWVKLTLKELDTLFLRGQ
notes: MutL homolog (NgoL) of Neisseria gonorrhoeae, C-terminal domain, residues 458-658; In the model, residues 463-654 (monomer A) and 464-656 (monomer B) are built; 587-591 are disordered; also called C-terminal domain of NgoL; source: selenomethionine-labelled form in E. coli B834
  stoichiometry N: 2
